2 substances from paper PMC5362816 can be followed below.

The target in test [1] is HA-tagged CaM12 mutant (rat) (UniProt P0DP29). Put plainly: co-IP; HA-CaM or mutants co-expressed with TRPA1-V5 in HEK293; IP with anti-HA.11 and Protein A/G PLUS-Agarose in 2 mM Ca2+; blot with anti-V5; band intensity by ImageJ, normalized by total TRPA1.
Test [2] has as its target HA-tagged CaM3 mutant (rat) (UniProt P0DP29). The test is described as above.
Test [3] concerns the target HA-tagged CaM4 mutant (rat) (UniProt P0DP29). The test is described as above.
In a further test the target is CaM-agarose (Sigma) (UniProt P62157). Put plainly: pull-down; CaM-agarose (Sigma) incubated with HEK293 lysate expressing a V5-His-tagged TRP channel; 20 mM Tris-HCl pH 7.4, 150 mM NaCl, 1% NP-40, 4 °C; 1 mM Ca2+ (Fig. 2A) or 2 mM Ca2+ (Fig. 2B); blot with anti-V5.

Sequence of TRPA1-V5-His (×6) (Q8BLA8 whole entry): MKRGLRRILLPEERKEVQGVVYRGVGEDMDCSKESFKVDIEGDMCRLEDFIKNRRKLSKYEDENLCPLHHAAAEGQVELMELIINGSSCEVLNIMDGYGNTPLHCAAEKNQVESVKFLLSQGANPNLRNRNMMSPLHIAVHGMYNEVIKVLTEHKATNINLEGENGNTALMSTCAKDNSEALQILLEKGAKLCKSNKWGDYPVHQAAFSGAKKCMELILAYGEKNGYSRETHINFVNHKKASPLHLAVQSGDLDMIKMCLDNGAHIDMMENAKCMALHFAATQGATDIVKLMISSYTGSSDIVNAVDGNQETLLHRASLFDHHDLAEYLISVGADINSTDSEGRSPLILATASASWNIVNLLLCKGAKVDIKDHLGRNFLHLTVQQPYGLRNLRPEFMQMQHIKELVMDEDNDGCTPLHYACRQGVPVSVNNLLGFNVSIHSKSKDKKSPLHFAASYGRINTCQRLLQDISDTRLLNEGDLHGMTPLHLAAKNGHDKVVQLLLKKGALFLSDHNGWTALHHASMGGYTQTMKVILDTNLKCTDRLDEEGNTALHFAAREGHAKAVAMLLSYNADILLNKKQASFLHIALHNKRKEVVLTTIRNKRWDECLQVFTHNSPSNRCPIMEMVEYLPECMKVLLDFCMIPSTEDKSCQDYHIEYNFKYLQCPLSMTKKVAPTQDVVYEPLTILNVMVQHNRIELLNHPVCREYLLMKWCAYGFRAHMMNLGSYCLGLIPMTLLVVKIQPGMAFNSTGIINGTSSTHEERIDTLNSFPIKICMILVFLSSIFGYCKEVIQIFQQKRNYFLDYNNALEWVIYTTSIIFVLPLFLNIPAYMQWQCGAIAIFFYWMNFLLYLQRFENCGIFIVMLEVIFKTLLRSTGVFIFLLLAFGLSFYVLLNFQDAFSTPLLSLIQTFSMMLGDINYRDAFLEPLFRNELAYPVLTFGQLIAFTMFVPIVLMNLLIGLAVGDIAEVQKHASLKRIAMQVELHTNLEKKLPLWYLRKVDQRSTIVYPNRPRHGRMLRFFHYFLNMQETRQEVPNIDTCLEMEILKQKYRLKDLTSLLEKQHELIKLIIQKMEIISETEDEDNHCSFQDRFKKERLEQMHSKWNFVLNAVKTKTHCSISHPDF

For the substance “TRPA1-V5-His (×6) (from UniProt Q8BLA8 1-1125) (natural protein)”, the percent reduction in TRPA1-CaM binding against wild-type CaM turned out to be 40% in test [1], 60% in test [2] and 87% in test [3].
TRPV3 (V5-His tagged) (natural protein) gave a relative binding to CaM (normalized by total input) in the test with CaM-agarose (Sigma) of 0.2.
